Assay results published in patent publication EP2009026A1 (ThromboGenics N.V., dated 2008).

Legend:
[1] = biological target: T1, GST fusion protein of VPAC1 extracellular loop 2 (human); test: western blotting of GST-loop fusion proteins
T1 construct: also called isolated extracellular loop 2 of the VPAC1 receptor; not shown: GST (glutathione-S-transferase) fusion partner
T1 chain: IHFEDYGCWDTINSSLWW

[2] = biological target: T2, GST-fused VPAC1 variant 4-2 (amino acids 231-457 of SEQ ID NO:15) (human, UniProt P32241 231-457); test: western blotting of GST-fused VPAC1 deletion variants
T2 construct: not shown: By analogy w [CUT]
T2 sequence: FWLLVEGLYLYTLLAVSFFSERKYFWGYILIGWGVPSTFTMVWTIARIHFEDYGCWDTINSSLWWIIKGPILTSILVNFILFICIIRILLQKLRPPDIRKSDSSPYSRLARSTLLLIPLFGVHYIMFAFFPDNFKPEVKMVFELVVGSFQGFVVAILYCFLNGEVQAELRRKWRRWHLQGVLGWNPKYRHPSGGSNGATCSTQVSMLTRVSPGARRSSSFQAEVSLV

[3] = biological target: T3, GST-fused VPAC1 variant 3-2 (amino acids 123-457 of SEQ ID NO:15) (human, UniProt P32241 123-457); test: as above
T3 construct: not shown: By analogy w [CUT]
T3 sequence: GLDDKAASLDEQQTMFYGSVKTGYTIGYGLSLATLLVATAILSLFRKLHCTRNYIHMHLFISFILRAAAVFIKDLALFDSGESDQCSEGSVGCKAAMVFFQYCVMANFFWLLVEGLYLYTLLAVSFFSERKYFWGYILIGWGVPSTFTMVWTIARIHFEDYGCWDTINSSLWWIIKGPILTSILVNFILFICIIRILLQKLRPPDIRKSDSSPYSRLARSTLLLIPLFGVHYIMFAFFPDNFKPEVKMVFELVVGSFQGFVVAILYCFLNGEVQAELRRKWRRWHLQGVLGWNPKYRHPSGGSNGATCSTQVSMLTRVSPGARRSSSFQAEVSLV

[4] = biological target: T4, murine VPAC1 receptor on mouse bone marrow-derived CD41/61+ megakaryocytes (mouse, UniProt P97751 31-459); test: immunoblot of mouse bone marrow-derived megakaryocytes
T4 construct: whole, on cells; Endogenous receptor; It was detected by immunoblot of megakaryocytes and targeted on living megakaryocytes in the cAMP assay; also called VPAC1 receptor on the murine megakaryocytes
T4 sequence (looked up): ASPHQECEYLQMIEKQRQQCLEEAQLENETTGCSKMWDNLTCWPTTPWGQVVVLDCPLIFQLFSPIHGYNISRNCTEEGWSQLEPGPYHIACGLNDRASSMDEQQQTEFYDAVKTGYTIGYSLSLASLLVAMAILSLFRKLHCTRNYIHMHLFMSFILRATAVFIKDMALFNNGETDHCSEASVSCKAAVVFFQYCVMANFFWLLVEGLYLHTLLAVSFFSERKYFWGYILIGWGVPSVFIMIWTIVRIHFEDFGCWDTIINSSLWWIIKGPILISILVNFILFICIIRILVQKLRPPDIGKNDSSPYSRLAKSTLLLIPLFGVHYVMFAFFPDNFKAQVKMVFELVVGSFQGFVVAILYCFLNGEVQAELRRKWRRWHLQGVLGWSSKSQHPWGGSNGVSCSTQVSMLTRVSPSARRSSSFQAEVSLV

[5] = biological target: T5, GST-VPAC1 fusion protein (human VPAC1, full length) (human, UniProt P08515 1-218 = GST); test: SPR (BIAcore 1000), GST-VPAC1 immobilized; KA = 1/KD; first batch
T5 construct: also called recombinant VPAC1

[6] = biological target: T5, GST-VPAC1 fusion protein (human VPAC1, …); test: SPR (BIAcore 1000), GST-VPAC1 immobilized; KA = 1/KD; second batch
[7] = biological target: T5, GST-VPAC1 fusion protein (human VPAC1, …); test: SPR (BIAcore 1000), GST-VPAC1 immobilized on CM5 chip, antibody injected, 1:1 Langmuir fit; first batch
[8] = biological target: T5, GST-VPAC1 fusion protein (human VPAC1, …); test: SPR (BIAcore 1000), GST-VPAC1 immobilized on CM5 chip, antibody injected, 1:1 Langmuir fit; second batch
[9] = biological target: T5, GST-VPAC1 fusion protein (human VPAC1, …); test: SPR (BIAcore 1000), GST-VPAC1 immobilized; KA = 1/KD
[10] = biological target: T5, GST-VPAC1 fusion protein (human VPAC1, …); test: SPR (BIAcore 1000), GST-VPAC1 immobilized on CM5 chip, antibody injected, 1:1 Langmuir fit

| Binder | binding result [1] | binding result [2] | binding result [3] | binding result [4] | Ka [5] [M⁻¹] | Ka [6] [M⁻¹] | Kd [7] [nM] | Kd [8] [nM] | Ka [9] [M⁻¹] | Kd [10] [nM] |
| --- | --- | --- | --- | --- | --- | --- | --- | --- | --- | --- |
| murine monoclonal anti-VPAC1 antibody 23A11 (antibody, V domains shown, Murine hybridoma antibody (BALB/c mice); also called murine 23A11; anti-VPAC1 receptor antibody 23A11) VH: EVQLQESGPSLVKPSQTLSLTCSVTGDSITSGYWNWIRKFPGNKLEYMGYIRYSGSTYYSPALKSRFSITRDTSKNQYYLQLNSVTTEDTATYYCSNWAYWGQGTLVTVSA VL: DIVITQDELSNPVTSGESVSISCRSSKSLLYKDGKTYLNWFLQRPGQSPQLLIYLMSTRASGVSDRFSGSGSGTDFTLEISRVKAEDVGVYYCQQLVEYPLTFGAGTKLELK | binds | binds | binds | binds | 3.54e+07 | 5.04e+07 | 28.3 | 19.9 |  |  |
| humanized 23A11 antibody (isotype not stated in Example 8) (antibody, V domains shown, The constant regions are human IgG1 or IgG4; also called humanize 23A11 antibody; rhu23A11) VH: EVQLQESGPGLVKPSQTLSLTCTVSGDSITSGYWNWIRKHPGKGLEYMGYIRYSGSTYYSPSLKSRFTISRDTSKNQYSLKLSSVTAADTATYYCSNWAYWGQGTLVTVSA VL: DIVITQSPLSLPVTPGEPVSISCRSSKSLLYKDGKTYLNWFLQRPGQSPQLLIYLMSTRASGVSDRFSGSGSGTDFTLKISRVEAEDVGVYYCQQLVEYPLTFGQGTKLEIK |  |  |  |  |  |  |  |  | 1.02e+08 | 9.82 |
